The values that follow come from the supplement of paper PMC9170038.

In the data set the test system is MS2 coat protein. Kind of data set: apparent KD of MS2 coat protein; designed switch direction (-1 OFF switch, 1 ON switch): -1; higher = weaker reporter binding. The gist of the method:
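Designed RNA switches with common flanks were made on Illumina chips by stalled E. coli RNA polymerase. Titration with SNAP-549-labelled MS2 coat protein doubled from 0.7 or 1.5 nM up to 3 µM. Apparent KD is each design's median over clusters after curve-fitting normalised fluorescence.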

[1] abbreviates: Eterna round: R95, input ligand: microRNA oligo, concentration not stated.
Setting [2] is: Eterna round: R95, input ligand: FMN 200 uM.
Setting [3] is: Eterna round: R95, input ligand: none.
Setting [4] is: input ligand: microRNA oligo, concentration not stated.

Turning to “GGUGCGUAUGUGAGGAUAUGCUGGUCCUUGGAUCAGCAGAAGGCACAUGAGGAUCACCCAUGUGGUGUCGUGCC [salish99_Bmod_Ex4_019] (puzzle: Brourd's mod of Exclusion 4)”, the “apparent KD of MS2 coat protein” value under setting [1] is 168 nM.
For the sequence “GGUGCGUCUGUGAGGAUAUGCUGGUCCUUGGCUCGGCAGAAGGCACAUGAGGAUCACCCAUGUGGUGUCGUGCC [salish99_Bmod_ex4_058] (puzzle: Brourd's mod of Exclusion 4)”, the “apparent KD of MS2 coat protein” value under setting [1] came out at 16.7 nM.
“GGUGCGUGUGUGAGGAUAUGCUGGUCCUUGGCUCGGCAGAAGGCACAUGAGGAUCACCCAUGUGGUGUCGUGCC [salish99_Bmod_ex4_057] (puzzle: Brourd's mod of Exclusion 4)”: the “apparent KD of MS2 coat protein” value under setting [1] is 19.9 nM.
Regarding “GGUGCUGGCGCGUCGGUGUUGGUGCAAUAAGCUUGUGAAACAUGAGGAUCACCCAUGUCCUCAUGGGCUCGUCUUGU [salish99_TOv2_r2_089] (puzzle: Sensor v3, turn-off variant 2)”, the “apparent KD of MS2 coat protein” value under setting [2] was 123 nM, the “apparent KD of MS2 coat protein” value under setting [1] was determined as 13 nM and the “apparent KD of MS2 coat protein” value under setting [3] amounted to 138 nM.
Turning to “GGUGGACAUGAGGAUCACCCAUGUGAGGAUAUCGGCUGGUACGUGUUGGCUGGCAUCUCGAGAAGGCACAUAGU [Exclusion 1 V61] (puzzle: Exclusion 1)”, the “apparent KD of MS2 coat protein” value under setting [1] is 58.8 nM.
Regarding “GGUUAUUCUGUAUGGGUACACAUGAGGAUCACCCAUGUACAGAGGUCUACCCUAAUAUAGCAAGCUGGCCCGUCCUA [Eternabot (L1) Solution 24] (Eterna round: R97, puzzle: Sensor, turn-off variant 1)”, the “apparent KD of MS2 coat protein” value runs as follows: (input ligand: FMN 200 uM) 148 nM; (input ligand: none) 132 nM.
For “GGUUCGAAAGUGAGGAUAUGCUGGUCCUUGGAUCAGCAGAAGGCACAUGAGGAUCACCCAUGUGGUAACGGACC [Mat - Exclusion 4 - Eli Mod - D37] (Eterna round: R97, puzzle: Brourd's mod of Exclusion 4)”, in that order: 122 nM and 25.2 nM.
Turning to “GGUUGACAUGAGGAUCACCCAUGUGAGGAUAUCGGCUGGUACGUGUUGGCUGGCAUCUCGAGAAGGCACAUAGG [Exclusion 1 V59] (puzzle: Exclusion 1)”, under setting [1], the “apparent KD of MS2 coat protein” value amounted to 155 nM.
As for “GGUUGACAUGAGGAUCACCCAUGUGAGGAUAUGCGAGAGAAAAAAGUGAGGAAGAAUAGCAGAAGGCGCUGUCG [salish99-ex1_r3_011] (puzzle: Exclusion 1)”, the “apparent KD of MS2 coat protein” value by setting is: under setting [2], 44.6 nM; under setting [1], 41.7 nM; under setting [3], 21.1 nM.
Take “GGUUGGCGAGGAUAUACAUGAGGAUCACCCAUGUGAAAGAAAAAAGUGAGGAAGAAAAGUAGAAGGCGCUGACG [salish99_ex3_r3_016] (puzzle: Exclusion 3)”: the “apparent KD of MS2 coat protein” value by setting is: under setting [2], 5.86 nM; under setting [1], 8.93 nM; under setting [3], 14.4 nM.
On the same counts, the results for “GGUUGGCGAGGAUAUACAUGAGGAUCACCCAUGUGAGAAAGAAAAGUGAGGAAGAAAAGUAGAAGGCGCUGACG [Mat - Exclusion 3 - Mod of Salish D2] (puzzle: Exclusion 3)” are 583 nM, 53.4 nM and 99.8 nM.
On to “GGUUGGCGAGGAUAUACAUGAGGAUCACCCAUGUGAGAGAAAAAAGUCAGGAAGAAAAGUAGAAGGCGCUGACG [salish99_ex3_r3_028] (puzzle: Exclusion 3)”, for which the “apparent KD of MS2 coat protein” value reads like this: under setting [2], 32.4 nM; under setting [1], 21.7 nM; under setting [3], 22.5 nM.
Take “GGUUGGCGAGGAUAUACAUGAGGAUCACCCAUGUGAGAGAAAAAAGUGAGGACGAAAAGUAGAAGGCGCUGACG [salish99_ex3_r3_032] (puzzle: Exclusion 3)”: the “apparent KD of MS2 coat protein” value runs as follows: under setting [2], 223 nM; under setting [1], 69.1 nM; under setting [3], 61.6 nM.
Regarding “GGUUGGCGAGGAUAUACAUGAGGAUCACCCAUGUGAGAGAAUAAAGUGAGGAAGAAAAGUAGAAGGCGCUGACG [salish99_ex3_r3_013] (puzzle: Exclusion 3)”, the “apparent KD of MS2 coat protein” value runs as follows: under setting [2], 1030 nM; under setting [1], 42.1 nM; under setting [3], 47 nM.
“GGUUUGCGGCAGGAUAUCCAUCCGCGGUAUGGUGGAGAAGGGCUGACAUGAGGAUCACCCAUGUGCGUCCUAGG [salish99_ex6_r4_018] (Eterna round: R97, puzzle: Exclusion 6)”: the “apparent KD of MS2 coat protein” value is, setting by setting: (input ligand: FMN 200 uM) 24.6 nM; (input ligand: none) 18.8 nM.
As for “GGUUUGGGAGGAUAUGGUUUUAAUAACAUGAGGAUCACCCAUGUAAAUAGAUCCUCAAGGCCAGAAGGCUCGGGCC [-24.9, -24.02 kcal, A 29%] (Eterna round: R97, puzzle: Exclusion 5)”, the “apparent KD of MS2 coat protein” value runs as follows: (input ligand: FMN 200 uM) 508 nM; (input ligand: none) 143 nM.
Take “GUAAAACAUGAGGAUCACCCAUGUCAGGAUAUACGAUUCCACCCUAACUGCGUGGAACGUAGAAGGGACAUAGG [Exclusion 1 (MOD6.1 Esqu)] (Eterna round: R97, puzzle: Exclusion 1)”: the “apparent KD of MS2 coat protein” value was 57.9 nM (input ligand: FMN 200 uM) and 221 nM (input ligand: none).
For “GUAAAACAUGUAGGAUAUGCGUGGCAAAGCUAUGCAGAAGGACAUGAGGAUCACCCAUGUUAAAGCGUCUGCGUACAGAUGCAA [Mat - Exclusion NG 1 - Mod of JL - D95] (Eterna round: R96, puzzle: Exclusion NG 1)”, the “apparent KD of MS2 coat protein” value is, setting by setting: (input ligand: FMN 200 uM) 143 nM; under setting [4], 30.5 nM; (input ligand: none) 30.7 nM.
With “GUAAAGUGAGGAUAUGGUAAAGUAAGUAUUUAGUAAGUAAUCCAGAAGGCACAUGAGGAUCACCCAUGUAAAUG [Mat - Exclusion 4 - D98] (puzzle: Exclusion 4)”, the “apparent KD of MS2 coat protein” value under setting [1] is 29.2 nM.
For the sequence “GUAAAGUGAGGAUAUGGUAAAGUAAUUAUUUAGUAAGUAAUCCAGAAGGCACAUGAGGAUCACCCAUGUAAAUG [Mat - Exclusion 4 - D97] (puzzle: Exclusion 4)”, under setting [1], the “apparent KD of MS2 coat protein” value was 25.7 nM.
As to “GUAAAUCAUGUAGGAUAUGCAUAGCAAAGCUAUGCAGAAGGACAUGAGGAUCACCCAUGUCAUUCCGUCUGGAGACAGACGGAA [Mat - Exclusion NG 1 - Mod of JL - D59] (Eterna round: R96, puzzle: Exclusion NG 1)”, the “apparent KD of MS2 coat protein” value runs as follows: (input ligand: FMN 200 uM) 121 nM; under setting [4], 22 nM; (input ligand: none) 32.2 nM.
For “GUAAAUCAUGUAGGAUAUGCGUGGCGAAGCUAUGCAGAAGGACAUGAGGAUCACCCAUGUGCUUCCGUCUGAGAACAGACGGAA [Mat - Exclusion NG 1 - Mod of JL - D27] (Eterna round: R96, puzzle: Exclusion NG 1)”, in that order: 105 nM, 187 nM and 341 nM.
On the same counts, the results for “GUAAAUCAUGUAGGAUAUGCGUGGCGAAGCUAUGCAGAAGGACAUGAGGAUCACCCAUGUGCUUCCGUCUGAGAACAGACGGAG [Mat - Exclusion NG 1 - Mod of JL - D28] (Eterna round: R96, puzzle: Exclusion NG 1)” are 222 nM, 116 nM and 244 nM.
Take “GUAACAUGCUGGUGAUCAUACAUGAGGAUCACCCAUGUAACAAGCUUUUUGCUCGUCUUAUAAGAUCACCAGCAUGU [Stov1/9-A3] (Eterna round: R97, puzzle: Sensor, turn-off variant 1)”: the “apparent KD of MS2 coat protein” value reads like this: (input ligand: FMN 200 uM) 12.2 nM; (input ligand: none) 13.6 nM.
On the same counts, the results for “GUAACAUGCUGGUGAUCAUACAUGAGGAUCACCCAUGUAACAAGCUUUUUGCUCGUCUUAUAAGAUUACUAGUAUGU [Stov1/10-A3] (Eterna round: R97, puzzle: Sensor, turn-off variant 1)” are 22 nM and 24.3 nM.
With “GUAACAUGCUGGUGAUCAUACAUGAGGAUCACCCAUGUAACAAGCUUUUUGCUCGUCUUAUAAUUUAAGAUCACCAG [Stov1/7-A3] (Eterna round: R97, puzzle: Sensor, turn-off variant 1)”, the “apparent KD of MS2 coat protein” value (input ligand: FMN 200 uM) amounted to 16.3 nM and the “apparent KD of MS2 coat protein” value (input ligand: none) was 16.2 nM.
As to “GUAAUGAUUGUGAGGAUAUUUCAUAGAUAGAUAUUAGAGAAGGUACAUGAGGAUCACCCAUGUGUGAUUAUACA [Brourd's EX4 #72] (Eterna round: R97, puzzle: Brourd's mod of Exclusion 4)”, the “apparent KD of MS2 coat protein” value reads like this: (input ligand: FMN 200 uM) 97.3 nM; (input ligand: none) 114 nM.
For “GUAAUGCUAGGAUAUCGACAAAUUUACAUGAGGAUCACCCAUGUGAACCCUGUGUGGUAACGAGAAGGAGUCAGCU [Eternabot (L2) Solution 54] (Eterna round: R97, puzzle: Exclusion 5)”, in that order: 39.1 nM and 53.5 nM.
As to “GUAAUGCUGCGAGGAUAUACAUGAGGAUCACCCAUGUGGAUGUCUGAGGCUUUGCCUCAGACGAUGUAGAAGGCGCAGUAAAAU [Mat - Exclusion NG 2 - Mod of JL - D53] (Eterna round: R96, puzzle: Exclusion NG 2)”, the “apparent KD of MS2 coat protein” value is 87.5 nM (input ligand: FMN 200 uM), 11.5 nM under setting [4] and 28.3 nM (input ligand: none).
For “GUAAUUAAUGUAGGAUAUGCAAGGCGAACCUAAGCAGAAGGAACAUGAGGAUCACCCAUGUAUGCGGUCUGCGUACAGAUCGCU [salish99_ExNG1_r4_004] (Eterna round: R96, puzzle: Exclusion NG 1)”, in that order: 15.1 nM, 13.3 nM and 19.7 nM.
